Experimental data: patent US20150203577A1 (Chugai, published 2015)

T1: mouse FcγRIII extracellular domain with C-terminal His tag (mouse, UniProt P08508 31-215)
T1 construct: Made on the basis of NCBI NP-034318.2; also called mFcγRIII; mFcgRIII
T1 chain: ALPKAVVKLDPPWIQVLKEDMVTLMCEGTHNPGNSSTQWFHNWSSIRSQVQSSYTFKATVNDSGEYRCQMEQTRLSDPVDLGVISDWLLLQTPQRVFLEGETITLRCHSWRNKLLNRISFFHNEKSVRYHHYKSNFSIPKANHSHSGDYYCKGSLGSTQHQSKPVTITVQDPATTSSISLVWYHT

T2: mouse FcγRII extracellular domain with C-terminal His tag (mouse, UniProt P08101 30-210)
T2 construct: Made on the basis of NCBI NP-034317.1; also called mFcγRII; mFcgRII
T2 sequence: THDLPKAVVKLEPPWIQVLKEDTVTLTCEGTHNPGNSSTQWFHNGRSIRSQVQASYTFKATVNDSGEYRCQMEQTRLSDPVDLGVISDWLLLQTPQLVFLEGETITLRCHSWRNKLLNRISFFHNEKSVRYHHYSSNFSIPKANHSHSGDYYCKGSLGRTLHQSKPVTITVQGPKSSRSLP


Tests used:
[1] = target: T1, mouse FcγRIII extracellular domain with …; assay: SPR Biacore T200
[2] = target: T2, mouse FcγRII extracellular domain with …; assay: SPR Biacore T200
[3] = target: T2, mouse FcγRII extracellular domain with …; assay: SPR Biacore T200; KD mFcγRIII / KD mFcγRII

Row | Binder | Kd [1] [nM] | relative mFcγRIII-binding activity (mIgG1 = 1) [1] | Kd [2] [nM] | relative mFcγRII-binding activity (mIgG1 = 1) [2] | I/A (mFcγRII selectivity) [3] | relative I/A (mFcγRII selectivity) (mIgG1 = 1) [3]
1 | H237-MB419/MRAL-k0 (antibody, mouse IgG1, kappa, copies: 2 + 2) heavy: QVQLQESGPGLVKPSETLSLTCAVSGHSISHDHAWSWVRQPPGEGLEWIGFISYSGITNYNPSLQGRVTISRDNSKNTLYLQMNSLRAEDTAVYYCARSLARTTAMDYWGEGTLVTVSSAKTTPPSVYPLAPGSAAQTNSMVTLGCLVKGYFPEPVTVTWNSGSLSSGVHTFPAVLQSDLYTLSSSVTVPSSTWPSETVTCNVAHPASSTKVDKKIVPRDCGCKPCICDNYEVEDVFIFPPKPKDVLTITLTPKVTCVVVDISKDDPEVQFSWFVDDVEVHTAQTQPREEQFNSTFRSVSELPIMHQDWLNGKEFKCRVNSAAFPAPIEKTISKTKGRPKAPQVYTIPPPKEQMAKDKVSLTCMITDFFPEDITVEWQWNGQPAENYKNTQPIMDTDGSYFVYSKLNVQKSNWEAGNTFTCSVLHEGLHNHHTEKSLSHSPGK light: not shown | 24.3 | 11.6 | 0.974 | 216 | 25 | 18.6
2 | H237-MB420/MRAL-k0 (antibody, mouse IgG1, kappa, copies: 2 + 2) heavy: QVQLQESGPGLVKPSETLSLTCAVSGHSISHDHAWSWVRQPPGEGLEWIGFISYSGITNYNPSLQGRVTISRDNSKNTLYLQMNSLRAEDTAVYYCARSLARTTAMDYWGEGTLVTVSSAKTTPPSVYPLAPGSAAQTNSMVTLGCLVKGYFPEPVTVTWNSGSLSSGVHTFPAVLQSDLYTLSSSVTVPSSTWPSETVTCNVAHPASSTKVDKKIVPRDCGCKPCICINYEVEDVFIFPPKPKDVLTITLTPKVTCVVVDISKDDPEVQFSWFVDDVEVHTAQTQPREEQFNSTFRSVSELPIMHQDWLNGKEFKCRVNSAAFPAPIEKTISKTKGRPKAPQVYTIPPPKEQMAKDKVSLTCMITDFFPEDITVEWQWNGQPAENYKNTQPIMDTDGSYFVYSKLNVQKSNWEAGNTFTCSVLHEGLHNHHTEKSLSHSPGK light: not shown | – | 7.1 | – | 124 | – | 17.5

Other lines, results leading:

Row | Kd [1] [nM] | relative mFcγRIII-binding activity (mIgG1 = 1) [1] | Kd [2] [nM] | relative mFcγRII-binding activity (mIgG1 = 1) [2] | I/A (mFcγRII selectivity) [3] | relative I/A (mFcγRII selectivity) (mIgG1 = 1) [3] | Binder
3 | – | 8.9 | – | 144 | – | 16.3 | H237-MB422/MRAL-k0 (antibody, mouse IgG1, kappa, copies: 2 + 2) heavy: QVQLQESGPGLVKPSETLSLTCAVSGHSISHDHAWSWVRQPPGEGLEWIGFISYSGITNYNPSLQGRVTISRDNSKNTLYLQMNSLRAEDTAVYYCARSLARTTAMDYWGEGTLVTVSSAKTTPPSVYPLAPGSAAQTNSMVTLGCLVKGYFPEPVTVTWNSGSLSSGVHTFPAVLQSDLYTLSSSVTVPSSTWPSETVTCNVAHPASSTKVDKKIVPRDCGCKPCICQNYEVEDVFIFPPKPKDVLTITLTPKVTCVVVDISKDDPEVQFSWFVDDVEVHTAQTQPREEQFNSTFRSVSELPIMHQDWLNGKEFKCRVNSAAFPAPIEKTISKTKGRPKAPQVYTIPPPKEQMAKDKVSLTCMITDFFPEDITVEWQWNGQPAENYKNTQPIMDTDGSYFVYSKLNVQKSNWEAGNTFTCSVLHEGLHNHHTEKSLSHSPGK light: not shown
4 | – | 9 | – | 178 | – | 19.9 | H237-MB421/MRAL-k0 (antibody, mouse IgG1, kappa, copies: 2 + 2) heavy: QVQLQESGPGLVKPSETLSLTCAVSGHSISHDHAWSWVRQPPGEGLEWIGFISYSGITNYNPSLQGRVTISRDNSKNTLYLQMNSLRAEDTAVYYCARSLARTTAMDYWGEGTLVTVSSAKTTPPSVYPLAPGSAAQTNSMVTLGCLVKGYFPEPVTVTWNSGSLSSGVHTFPAVLQSDLYTLSSSVTVPSSTWPSETVTCNVAHPASSTKVDKKIVPRDCGCKPCICPNYEVEDVFIFPPKPKDVLTITLTPKVTCVVVDISKDDPEVQFSWFVDDVEVHTAQTQPREEQFNSTFRSVSELPIMHQDWLNGKEFKCRVNSAAFPAPIEKTISKTKGRPKAPQVYTIPPPKEQMAKDKVSLTCMITDFFPEDITVEWQWNGQPAENYKNTQPIMDTDGSYFVYSKLNVQKSNWEAGNTFTCSVLHEGLHNHHTEKSLSHSPGK light: not shown
